Test results from patent publication US20050238642A1, “Modified bouganin proteins, cytotoxins and methods and uses thereof” (priority 2004, published 2005).

Assays:
tumor cell lines = experiment: VB6-845 Tumor Cell Indications: binding for scFv 845 to tumor cell lines (median fluorescence)
From the text: Tumor-targeting cytotoxins are composed of the variable region of an antibody linked to a bacterial, fungal or plant toxin. The present study illustrates that the deimmunized bouganin constructs of the invention, comprising deimmunized bouganin linked to a targeting moiety have reduced immunogenicity, while still retaining their biological activity.

[1] = target: T1, Ep-CAM (Epithelial Cell Adhesion Molecule) (human, UniProt P16422 24-314); experiment: cell-based or functional assay
T1 sequence: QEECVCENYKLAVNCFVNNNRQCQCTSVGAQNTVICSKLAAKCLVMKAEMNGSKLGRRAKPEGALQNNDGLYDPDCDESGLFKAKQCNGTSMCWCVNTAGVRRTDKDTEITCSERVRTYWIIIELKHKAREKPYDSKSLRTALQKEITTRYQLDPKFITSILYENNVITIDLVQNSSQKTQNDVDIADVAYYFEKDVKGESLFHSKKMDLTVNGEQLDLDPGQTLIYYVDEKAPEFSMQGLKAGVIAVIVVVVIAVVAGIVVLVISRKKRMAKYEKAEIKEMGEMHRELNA

[2] = target: T1, Ep-CAM (Epithelial Cell Adhesion …); experiment: cell-based or functional assay; remark: listed apart in the source
[3] = target: T1, Ep-CAM (Epithelial Cell Adhesion …); experiment: flow cytometry, 10 µg/mL VB6-845 on C-33A cells (cervical; Ep-CAM status of the line not stated), anti-His detection; ± SEM
[4] = target: T1, Ep-CAM (Epithelial Cell Adhesion …); experiment: flow cytometry, 10 µg/mL VB6-845 on HT-3 cells (cervical), anti-His detection; ± SEM
[5] = target: T1, Ep-CAM (Epithelial Cell Adhesion …); experiment: flow cytometry, 10 µg/mL VB6-845 on C-4 I cells (cervical), anti-His detection; ± SEM
[6] = target: T1, Ep-CAM (Epithelial Cell Adhesion …); experiment: flow cytometry, 10 µg/mL VB6-845 on RL95-2 cells (endometrial), anti-His detection; ± SEM
[7] = target: T1, Ep-CAM (Epithelial Cell Adhesion …); experiment: flow cytometry, 10 µg/mL VB6-845 on NIH:OVCAR-3 cells (ovarian, Ep-CAM-positive), anti-His detection; ± SEM
[8] = target: T1, Ep-CAM (Epithelial Cell Adhesion …); experiment: flow cytometry, 10 µg/mL VB6-845 on HEC-1-A cells (endometrial), anti-His detection; ± SEM
[9] = target: T1, Ep-CAM (Epithelial Cell Adhesion …); experiment: flow cytometry, 10 µg/mL VB6-845 on TOV-112G cells (ovarian; Ep-CAM status of the line not stated), anti-His detection; ± SEM
[10] = target: T1, Ep-CAM (Epithelial Cell Adhesion …); experiment: flow cytometry, 10 µg/mL VB6-845 on SK-OV-3 cells (ovarian), anti-His detection; ± SEM
[11] = target: T1, Ep-CAM (Epithelial Cell Adhesion …); experiment: flow cytometry, 10 µg/mL VB6-845 on SK-UT-1 cells (endometrial; Ep-CAM status of the line not stated), anti-His detection; ± SEM
CAL 27 = experiment: Flow cytometry reactivity test (Example 7); assay type: binding; conditions: Ep-CAM positive cell line CAL 27
Experimental: (§1) The flow cytometry tests were conducted by incubating the constructs or control with 0.45×10^6 cells for an hour on ice. After washing, cell surface bound constructs were detected with a rabbit anti-bouganin (for FIG. 10A) or mouse anti-His tag (FIG. 10B) for an hour on ice. The cells were washed and incubated with FITC-conjugated sheep anti-rabbit IgG (FIG. 10A) and FITC-conjugated sheep anti-mouse (IgG) (FIG. 10B) for 30 minutes on ice. Subsequently the cells were washed, resuspended in PBS 5% FCS containing propidium iodide for assessment of antibody binding by flow cytometry.

A-375 = experiment: Flow cytometry reactivity test (Example 7); assay type: binding; conditions: Ep-CAM-negative cell line A-375
Experimental: as §1

NIH:OVCAR-3 = experiment: Flow cytometry reactivity test (Example 7); assay type: binding; conditions: Ep-CAM positive cell line NIH:OVCAR-3
Experimental: as §1

B1: scFv 845: the Ep-CAM antibody of VB6-845, head prints scFv 845 (IgG) (antibody, chains of the INN, looked up, V domains shown)
VH: EVQLVQSGPGLVQPGGSVRISCAASGYTFTNYGMNWVKQAPGKGLEWMGWINTYTGESTYADSFKGRFTFSLDTSASAAYLQINSLRAEDTAVYYCARFAIKGDYWGQGTLLTVSS
VL: DIQMTQSPSSLSASVGDRVTITCRSTKSLLHSNGITYLYWYQQKPGKAPKLLIYQMSNLASGVPSRFSSSGSGTDFTLTISSLQPEDFATYYCAQNLEIPRTFGQGTKVELK
modifications: scFv
Tumor cell lines; Bladder, 14 cell lines
  Binding for scFv 845 (IgG): mean fold-increase in median fluorescence over the control antibody: 59.6 fold
Tumor cell lines; Cervical, 3 cell lines
  Binding for scFv 845 (IgG): mean fold-increase in median fluorescence over the control antibody: 37.5 fold
Tumor cell lines; Endometrial, 1 cell line
  Binding for scFv 845 (IgG): mean fold-increase in median fluorescence over the control antibody: 23.8 fold
Tumor cell lines; Esophageal, 3 cell lines
  Binding for scFv 845 (IgG): mean fold-increase in median fluorescence over the control antibody: 72.4 fold
Tumor cell lines; Gastric, 3 cell lines
  Binding for scFv 845 (IgG): mean fold-increase in median fluorescence over the control antibody: 148.9 fold
Tumor cell lines; Head and Neck, 2 cell lines
  Binding for scFv 845 (IgG): mean fold-increase in median fluorescence over the control antibody: 11.4 fold
Tumor cell lines; Kidney, 3 cell lines
  Binding for scFv 845 (IgG): mean fold-increase in median fluorescence over the control antibody: 9.4 fold
Tumor cell lines; Lung, 3 cell lines
  Binding for scFv 845 (IgG): mean fold-increase in median fluorescence over the control antibody: 16.4 fold
Tumor cell lines; Melanoma, 3 cell lines
  Binding for scFv 845 (IgG): mean fold-increase in median fluorescence over the control antibody: 1.6 fold
Tumor cell lines; Ovarian, 2 cell lines
  Binding for scFv 845 (IgG): mean fold-increase in median fluorescence over the control antibody: 84.1 fold
Tumor cell lines; Pancreas, 3 cell lines
  Binding for scFv 845 (IgG): mean fold-increase in median fluorescence over the control antibody: 5.5 fold
Tumor cell lines; Prostate, 5 cell lines
  Binding for scFv 845 (IgG): mean fold-increase in median fluorescence over the control antibody: 50.1 fold

B2: VB6-845 (Fab)
chain 1: EVQLVQSGPGLVQPGGSVRISCAASGYTFTNYGMNWVKQAPGKGLEWMGWINTYTGESTYADSFKGRFTFSLDTSASAAYLQINSLRAEDTAVYYCARFAIKGDYWGQGTLLTVSSASTKGPSVFPLAPSSKSTSGGTAALGCLVKDYFPEPVTVSWNSGALTSGVHTFPAVLQSSGLYSLSSVVTVPSSSLGTQTYICNVNHKPSNTKVDKKVEPKSCTRHRQPRGWEQLYNTVSFNLGEAYEYPTFIQDLRNELAKGTPVCQLPVTLQTIADDKRFVLVDITTTSKKTVKVAIDVTDVYVVGYQDKWDGKDRAVFLDKVPTVATSKLFPGVTNRVTLTFDGSYQKLVNAAKADRKALELGVNKLEFSIEAIHGKTINGQEAAKFFLIVIQMVSEAARFKYIETEVVDRGLYGSFKPNFKVLNLENNWGDISDAIHKSSPQCTTINPALQLISPSNDPWVVNKVSQISPDMGILKFKSSK
chain 2: HHHHHHDIQMTQSPSSLSASVGDRVTITCRSTKSLLHSNGITYLYWYQQKPGKAPKLLIYQMSNLASGVPSRFSSSGSGTDFTLTISSLQPEDFATYYCAQNLEIPRTFGQGTKVELKRTVAAPSVFIFPPSDEQLKSGTASVVCLLNNFYPREAKVQWKVDNALQSGNSQESVTEQDSKDSTYSLSSTLTLSKADYEKHKVYACEVTHQGLSSPVTKSFNRGEC
notes: also called Fab anti-Ep-CAM-de-bouganin (Bou156) construct
[1]
  IC50 nM, MTS cytotoxicity assay, NIH:OVCAR-3 cells (VB6-845 90% pure): 1 nM
[2]
  IC50 nM, MTS cytotoxicity assay, C-4 I cells (VB6-845 70% pure): 1.7 nM
  IC50 nM, MTS cytotoxicity assay, Caov-3 cells (VB6-845 70% pure): 1.3 nM
  IC50 nM, MTS cytotoxicity assay, HEC-1-A cells (VB6-845 70% pure): 43 nM
  IC50 nM, MTS cytotoxicity assay, HT-3 cells (VB6-845 70% pure): 23 nM
  IC50 nM, MTS cytotoxicity assay, KLE cells (VB6-845 70% pure): > 100 nM
  IC50 nM, MTS cytotoxicity assay, ME-180 cells (VB6-845 70% pure): 37 nM
  IC50 nM, MTS cytotoxicity assay, MS751 cells (VB6-845 70% pure): 0.43 nM
  IC50 nM, MTS cytotoxicity assay, NIH-OVCAR-3 cells (VB6-845 70% pure): 3.4 nM
  IC50 nM, MTS cytotoxicity assay, RL95-2 cells (VB6-845 70% pure): 100 nM
  IC50 nM, MTS cytotoxicity assay, SK-OV-3 cells (VB6-845 70% pure): > 100 nM
[3]
  fold-increase in MF: 1.1 fold
[4]
  fold-increase in MF: 29.1 fold
[5]
  fold-increase in MF: 6.8 fold
[6]
  fold-increase in MF: 4.9 fold
[7]
  fold-increase in MF: 33.6 fold
[8]
  fold-increase in MF: 42.3 fold
[9]
  fold-increase in MF: 1.1 fold
[10]
  fold-increase in MF: 4.3 fold
[11]
  fold-increase in MF: 1.1 fold

B3: VB6-845-CL-de-bouganin: Fab anti-Ep-CAM de-bouganin construct, Bou156 linked at the C-terminus of the CL domain (protein)
chain 1: HHHHHHEVQLVQSGPGLVQPGGSVRISCAASGYTFTNYGMNWVKQAPGKGLEWMGWINTYTGESTYADSFKGRFTFSLDTSASAAYLQINSLRAEDTAVYYCARFAIKGDYWGQGTLLTVSSASTKGPSVFPLAPSSKSTSGGTAALGCLVKDYFPEPVTVSWNSGALTSGVHTFPAVLQSSGLYSLSSVVTVPSSSLGTQTYICNVNHKPSNTKVDKKVEPKSC
chain 2: DIQMTQSPSSLSASVGDRVTITCRSTKSLLHSNGITYLYWYQQKPGKAPKLLIYQMSNLASGVPSRFSSSGSGTDFTLTISSLQPEDFATYYCAQNLEIPRTFGQGTKVELKRTVAAPSVFIFPPSDEQLKSGTASVVCLLNNFYPREAKVQWKVDNALQSGNSQESVTEQDSKDSTYSLSSTLTLSKADYEKHKVYACEVTHQGLSSPVTKSFNRGECTRHRQPRGWEQLYNTVSFNLGEAYEYPTFIQDLRNELAKGTPVCQLPVTLQTIADDKRFVLVDITTTSKKTVKVAIDVTDVYVVGYQDKWDGKDRAVFLDKVPTVATSKLFPGVTNRVTLTFDGSYQKLVNAAKADRKALELGVNKLEFSIEAIHGKTINGQEAAKFFLIVIQMVSEAARFKYIETEVVDRGLYGSFKPNFKVLNLENNWGDISDAIHKSSPQCTTINPALQLISPSNDPWVVNKVSQISPDMGILKFKSSK
CAL 27
  shift in median fluorescence: marked shift in median fluorescence
A-375
  shift in median fluorescence: No shift in median fluorescence
NIH:OVCAR-3
  shift in median fluorescence: marked shift in median fluorescence
